Measurements as given in publication PMC6235853.

Legend:
[1] = target: CusB N-terminal fragment residues 1-61, S(Met) (unlabelled) (Escherichia coli)
[2] = target: CusB N-terminal fragment residues 1-61, S(Met) (unlabelled) (Escherichia coli); experiment: rapid freeze quench X-ray absorption spectroscopy (RFQ-XAS, Se K edge); 23 °C; 1:2 mixture of apo-SeM-CusF with Cu(I)-loaded S(met)-CusB-NT, 50 mM HEPES pH 7.5, 5% ethylene glycol, liquid ethane quench, 15 ms to 30 s; Se-Cu peak height fitted (DYNAFIT) to rapid protein-protein association followed by intra-complex metal transfer; the complex shares one Cu(I) between ligands of both proteins

CusB N-terminal fragment residues 1-61, S(Met) (unlabelled) (Escherichia coli), sequence (P77239 29-89 limits assumed): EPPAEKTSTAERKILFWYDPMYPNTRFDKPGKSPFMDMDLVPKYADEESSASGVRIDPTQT

Row | Substance | fast phase of the quenching of the CusF W44 344 nm emission, stopped-flow fluorescence, 4 °C, apo-S(met)-CusF mixed with Cu(I)-S(Met)-CusB-NT [1] | slow phase of the quenching of the CusF W44 344 nm emission, stopped-flow fluorescence, 4 °C, apo-S(met)-CusF mixed with Cu(I)-S(Met)-CusB-NT [1] | kon [2]
1 | CusF(6-88) M8I M59I double mutant, S(Met) (unlabelled) (domain or fragment) | 165 s⁻¹ | 0.012 s⁻¹ | 
2 | selenomethionine-labelled CusF(6-88) M8I M59I double mutant (domain or fragment) |  |  | 1e+06 M⁻¹ s⁻¹
